Laboratory results reported in patent publication US20260049134A1 (UNIVERSITY OF FLORIDA RESEARCH FOUNDATION, published 2026).

T1: CADM1, endogenous in H929 multiple myeloma cells (human, UniProt Q9BY67 45-442)
T1 construct: Native protein on H929 cells (flow cytometry, siRNA knockdown) and in H929 lysates (IP/MS); RPMI-8226 cells were used for sorting with HW-97; also called IGSF4A
T1 sequence: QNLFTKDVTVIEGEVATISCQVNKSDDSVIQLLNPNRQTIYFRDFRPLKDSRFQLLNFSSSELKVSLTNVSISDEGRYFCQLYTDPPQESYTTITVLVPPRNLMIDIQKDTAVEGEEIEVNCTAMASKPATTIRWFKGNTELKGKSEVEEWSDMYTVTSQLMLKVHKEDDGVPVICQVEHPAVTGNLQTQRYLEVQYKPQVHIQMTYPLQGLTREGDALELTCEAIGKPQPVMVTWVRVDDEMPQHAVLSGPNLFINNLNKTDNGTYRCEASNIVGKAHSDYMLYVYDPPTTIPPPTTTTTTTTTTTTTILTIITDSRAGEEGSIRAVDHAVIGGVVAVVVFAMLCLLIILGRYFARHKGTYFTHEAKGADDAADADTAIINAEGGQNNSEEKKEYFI


How the values were obtained:
[1] = target: T1, CADM1, endogenous in H929 multiple …; experiment: flow cytometry, H929 + PTPRG siRNA; None 2.13
[2] = target: T2, ICAM1, endogenous in H929 multiple myeloma cells (human, UniProt P05362 28-532); experiment: flow cytometry, IgG1 on H929 cells
T2 construct: Native protein on H929 cells (flow cytometry, siRNA knockdown) and in H929 lysates (IP/MS); also called CD54
Description: Staining protocol. Cells were harvested (5×10⁴ cells per sample), washed once with phosphate-buffered saline (PBS) at RT, and a second time with ice-cold FACS buffer (PBS, 0.5% BSA, 2 mM EDTA, 0.1% NaN₃). Cells were stained in 50 μL of primary antibody for 30 min on ice, washed twice with 100 μL FACS buffer, stained with 50 μL of diluted secondary antibody, washed two more times in FACS, and then resuspended in 50 μL FACS buffer. Samples were acquired on an Accuri C6 Plus or a BD FACSCanto II flow cytometer (both from BD Biosciences). Data were analyzed using FlowJo version 10 software. Primary antibodies: Fab (10 μg/mL), IgG1 (0.1 to 50 μg/mL), or 25 μL polyclonal Fabs from periplasmic extracts. Polyclonal Fabs were produced by diluting bacterial stocks by a factor of 100 in autoinduction media and incubating overnight to induce expression as previously described. […] Viability stains: DAPI (Cell Signaling Technology) or SYTOX AADvanced Dead Cell Stain (Thermo Fisher Scientific). Labeling: The panel of chimeric rabbit/human IgG1s was labeled using the Alexa Fluor 647 Labeling Kit (Thermo Fisher Scientific, #A20173) to facilitate single-step staining. Competition: Unlabeled IgG1s were added at saturating concentrations of 60 μg/mL to block the target receptors, incubating on ice for 30 min, followed by the addition of an equal volume of the Alexa Fluor 647 labeled antibody at 2 μg/mL, and the mixture was incubated on ice for another 30 min.

[3] = target: T2, ICAM1, endogenous in H929 multiple …; experiment: flow cytometry, H929 + vehicle; None 513
[4] = target: T2, ICAM1, endogenous in H929 multiple …; experiment: flow cytometry, H929 + NT Green siRNA; None 1.35

T2 sequence (P05362 28-532 limits assumed): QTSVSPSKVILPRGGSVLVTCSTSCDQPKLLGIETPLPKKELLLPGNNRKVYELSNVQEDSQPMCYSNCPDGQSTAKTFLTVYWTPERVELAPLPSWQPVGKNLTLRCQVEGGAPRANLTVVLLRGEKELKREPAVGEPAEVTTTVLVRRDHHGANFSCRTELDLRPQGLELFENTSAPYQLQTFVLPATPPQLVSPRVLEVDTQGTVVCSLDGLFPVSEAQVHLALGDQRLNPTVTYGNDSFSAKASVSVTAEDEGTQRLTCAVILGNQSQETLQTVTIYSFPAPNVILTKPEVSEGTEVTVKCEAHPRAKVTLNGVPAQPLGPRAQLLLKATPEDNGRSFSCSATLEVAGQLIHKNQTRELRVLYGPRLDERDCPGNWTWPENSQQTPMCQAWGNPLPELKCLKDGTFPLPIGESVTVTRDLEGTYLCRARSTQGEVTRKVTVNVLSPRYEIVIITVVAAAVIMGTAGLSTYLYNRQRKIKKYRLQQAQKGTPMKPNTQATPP

Row | Cells stained (%) [1] | antibody-bound positive cells (%) [2] | mAb binding (MFI) [3] | Cells stained (%) [4] | Binder
1 | 94.8% | – | – | – | HW-97 chimeric rabbit-human IgG1 LA/LA/PG (antibody, V domains shown, Fc-silenced (L234A/L235A/P329G) IgG1, lambda; Alexa Fluor 647-labeled in single-step flow cytometry; Prototype of cluster C-97) VH: QKQLVESGGRLVTPGTPLTLTCTVTGIDLSSHGMSWVRQAPGKGLEWIGVIYPSGSTWYASWARGRFTISKTSTTVDLKMTSLTTEDTATHFCARGDVGGADNNIWGPGTLVTVSS VL: SFVLTQPASVQVDLGQTVSLTCTAETLSRSYASWYQQKPGQAPVLLIYRDTSRPSGVPDRFSGSSSGNTATLTISGAQAGDEADYYCATSDGSGSSYQYVFGGGTQLTVTG
2 | 85.3% | – | – | – | HW-101 chimeric rabbit-human IgG1 LA/LA/PG (antibody, V domains shown, Fc-silenced (L234A/L235A/P329G) IgG1, lambda; Alexa Fluor 647-labeled in single-step flow cytometry; Cluster C-97) VH: QEQLVESGGRLVTPGTPLTLTCKASGFSLGKYDMSWVRQAPGKGLEWIGTIYAGSGSTWYASWAKGRFTISKTSTTVDLKMTSLTTEDTATYFCARDFLGVNSIWGPGTLVTISS VL: SFVLTQPASVQVNLGQTVSLTCTADTLSRSYASWYQQKPDQAPVLLIHRDTSRPSGVPDRFSGSNSGNTATLTISGAQAGDEADYYCATSDGSGSNFHFVFGGGTQLTVTG
3 | – | 95.8% | 49100 | 99.8% | HW-113 chimeric rabbit-human IgG1 LA/LA/PG (antibody, V domains shown, Fc-silenced (L234A/L235A/P329G) IgG1, lambda; Alexa Fluor 647-labeled in single-step flow cytometry) VH: QKQLVESGGGLVQPGGSLTLTCTVSGFSLNKYYMGWFRQAPGKGLEWIGVISRSGDTYYSSWAKGRFTISKASTTVDLRITSPTTEDTATYFCARDASSPGFHGDRLDLWGQGTLVTVSS VL: SFVLTQPASVQVNLGQTVSLTCTADTLSRSYASWYQQKPGQAPVLLIYRDTSRPSGVPDRFSGSSSGNTATLTISGAQAGDEADYYCATSDGIGSNYLWVFGGGTQLTVTG
4 | – | – | 595 | 1.86% | TH9-0022 (antibody, human IgG1, kappa, L234A L235A, V domains shown, also called TH9-022; negative control) VH: QSLEESGGRLVTPGTPLTLTCTVSGFSLSSYAMNWVRQAPGKGLEWIGIINSYGSTYYASWAKGRFTISKTSTTVDLKITSPTTEDTATYFCARVTYDSYGYGYAPYGMDLWGPGTLVTVSS VL: LVMTQTPSSTSNAVGGTVTIKCQASQSIGNVLAWYQQKPGQPPKLLIYAASTLASGVPSRVGGSRSGTEYTLTISGVQREDAATYYCLGSDSDSDIAFGGGTELEILR
5 | – | 2.7% | – | – | TH9-0022 (antibody, human IgG1, kappa, L234A L235A, V domains shown, also called TH9-022; negative control IgG1) VH: QSLEESGGRLVTPGTPLTLTCTVSGFSLSSYAMNWVRQAPGKGLEWIGIINSYGSTYYASWAKGRFTISKTSTTVDLKITSPTTEDTATYFCARVTYDSYGYGYAPYGMDLWGPGTLVTVSS VL: LVMTQTPSSTSNAVGGTVTIKCQASQSIGNVLAWYQQKPGQPPKLLIYAASTLASGVPSRVGGSRSGTEYTLTISGVQREDAATYYCLGSDSDSDIAFGGGTELEILR
